US20090176209A1

Target: scArc-Vκ(E5)-HA fusion protein (Vκ(E5) fused to the C-terminus of scArc; pIE3AVκ(E5) series constructs) (phage P22)
Assay: emulsion expression of the pIE3a^4AVκ(E5)-derived template; capture on 3F10-coated PCR tubes; quantitative PCR

## αHA rat mAb 3F10 (Roche), High Affinity anti-HA monoclonal antibody
  percent of the total input genetic element DNA recovered in complex with the fusion protein on the mAb-coated surface: > 23%
